Measurements as given in patent CN111978395A (UNIV SICHUAN, dated 2020).

B1: DK5 (antibody, V domains shown)
VH: QVQLQQPGAELVKPGASVKMSCKASGYTFTSYSMHWVKQTPGQGLEWIGAIYPGNGDTSYNQKFKGKATLTADKSSSTAYMQLSSLTSEDSAVYYCARDYHYDGYYVTLDYWGQGTTLTVSS
VL: DIQMTQSPSSLSASLGERVSLTCRASQEISGYLSWLQQKPDGTIKRLIYAASTLDSGVPKRFSGSRSGSDYSLTISSLESEDFADYYCLQYASYPWTFGGGTKLEIK
B2: DK6 (antibody, V domains shown)
VH: QVQLQQPGTELVKPGASVKMSCKASGYTFTSYSIHWVKQTPGQGLEWIGAIYPGNGDTSYNQKFKGKATLTADKSSSTAYMQLSSLTSEDSAVYYCARDYHYDGYYVTLDYWGQGTTLTVSS
VL: DIQMTQSPSSLSASLGERVSLTCRASQEISGYLSWLQQKPDGTIKRLIYAASTLDSGVPKRFSGSRSGSDYSLTISSLESEDFADYYCLQYASYPWTFGGGTKLEIK
B3: DK7 (antibody, V domains shown)
VH: QVQLQQPGAELVKPGASVKMSCKASGYTFTSYSMHWVKQTPGQGLEWIGAIYPGNGDTSYNQKFKGKATLTADKSSSTAYMQLSSLTSEDSAVYYCARDYHYDGYYVTLDYWGQGTTLTVSS
VL: DIQMTQSPSSLSASLGERVSLTCRASQEISGYLSWLQQKPDGTIKRLIYAASTLDSGVPKRFSGSRSGSDYSLTISSLESEDFADYYCLQYASYPWTFGGGTKLEIK
B4: DK10 (antibody, V domains shown)
VH: QVQLQQPGAELVKPGASVKMSCKASGYTFTSYSMHWVKQTPGQGLEWIGAIYPGNGDTSYTQKFKGKATLTADKSSSTAYMQLNSLTSEDSAVYYCARDYHYDGYYVTLDYWGQGTTLTVSS
VL: DIQMTQSPSSLSASLGERVSLTCRASQEISGYLSWLQQKPDGTIKRLIYAASTLDSGVPKRFSGSRSGSDYSLTISSLESEDFADYYCLQYASYPWTFGGGTKLEIK
B5: DK11 (antibody, V domains shown)
VH: EVQLQQSGPELVKPGASVKISCKASGYSFTGYFMNWVKQSHGKSLEWIGRINPYNGDTFYNQKFKGKATLTVDKSSSTAHMELLSLTSEDSAVYYCGRGYLDYWGQGTTLTVSS
VL: DIVMTQSHKFMSTSVGDRVSITCKASQDVSTAVAWYQQKPGQSPKLLIFSASYRYTGVPDRFTGSGSGTDFTFTISSVQAEDLAVYYCQEHYSNPYTFGGGTKLEIK
B6: DK14 (antibody, V domains shown)
VH: QVQLQQPGAELVKPGASVKLSCKASGYTFISYWMHWVKQRPGQGLEWIGEIDPSDSYTNSNQKFKGKATLTVDKSSSTAYMQLSSLTSEDSAVYYCARSELWAMDYWGQGTSVTVSS
VL: DIVMTQAAFSNPVTLGTSASISCRSSKSLLHSHGITYLYWYLQKPGQSPQLLIYQMSNLASGVPDRFSSSGSGTDFTLRISRVEAEDVGVYYCAQNLELPWTFGGGTKLEIR
B7: DK15 (antibody, V domains shown)
VH: QVQLQQPGAEFVMPGASVKMSCKASGYTFTDYWMHWVKQRPGQGLEWIGAIDTSDTYTRYNQKFKDKATLTVDESSSTAYMQLSSLTSEDSAVYYCARFLYYYGNPTFDYWGQGTTLTVSS
VL: DVQITQSPSYLAASPGETITINCRASKSISKYLAWYQEKPGKTNKLLIYSGSTLQSGIPSRFSGSGSGTDFTLTISSLEPEDFAMYYCQQHNEYPLTFGAGTKLELK
B8: DK2 (antibody, V domains shown)
VH: QVQLQQPGAELVKPGASVKMSCKASGYTFISYSMHWVKQTPGQGLEWIGAIYPGNGDTSYTQKFKGKATLTADKSSTTAYMQLSSLTSEDSAVYYCARDHGNYVLDYWGQGTTLTVSS
VL: DIVMTQSHKFMSTSVGDRVSITCKASQDVGTAVAWYQQKPGQSPKLLIYWASTRHTGVPDRFTGSGSGTDFTLTISNVQSEDLADYFCQQYSSYPWTFGGGTKLEIK

How the values were obtained:
[1] = molecular target: T1, SARS-CoV2病毒表面SPIKE蛋白的RBD结构域 (SARS-CoV2, UniProt P0DTC2 319-541); assay: Biacore blocking experiment, antibody of the hybridoma clone
[2] = molecular target: T1, SARS-CoV2病毒表面SPIKE蛋白的RBD结构域; assay: Biacore (SPR), recombinant antibody against RBD
SARS-CoV2病毒的囊膜蛋白SPIKE = SARS-CoV2病毒的囊膜蛋白SPIKE (SARS-CoV2, UniProt P0DTC2 14-1273); assay: cell-based or functional assay

Binder	阻断率 [1] [%]	Kd [2] [nM]	EC50(nM), 阻断假病毒感染 (GFP阳性细胞) (SARS-CoV2病毒的囊膜蛋白SPIKE) [nM]	EC50(μg/mL), 阻断假病毒感染 (GFP阳性细胞) (SARS-CoV2病毒的囊膜蛋白SPIKE) [µg/mL]
B1	≥ 60	< 1	0.1	0.015
B2	≥ 60	< 1	0.47	0.071
B3	–	–	0.47	0.071
B4	–	–	1.63	0.245
B5	–	–	0.34	0.051
B6	–	–	0.41	0.062
B7	–	–	1.27	0.191
B8	≥ 60	< 1	0.083	0.012
